The target of data set [1] is T1, DEGW|ALQH (Table 1 substrate sequence).
T1 chain: DEGWALQH

Data set [2] concerns the target T2, NMKW|TRVL (Table 1 substrate sequence).
T2 chain: NMKWTRVL

Data set [3] concerns the target T3, PWTW|YGVK (Table 1 substrate sequence).
T3 chain: PWTWYGVK

The target of data set [4] is T4, VGKW|SYRM (Table 1 substrate sequence).
T4 chain: VGKWSYRM

Data set [5] has as its target T5, gastricsin selective internally quenched fluorescent substrate DEGW^ALQH.
T5 chain: DEGWALQH

In data set [6] the target is T6, FGIF|YLNG (Table 1 substrate sequence).
T6 chain: FGIFYLNG

The target in data set [7] is T7, GLY|FRYE (Table 1 substrate sequence).
T7 chain: GLYFRYE

The target in data set [8] is T8, HMIA|LYWG (Table 1 substrate sequence).
T8 chain: HMIALYWG

For data set [9], the target named is T9, IKIL|MFYW (Table 1 substrate sequence).
T9 chain: IKILMFYW

In data set [10] the target is T10, cathepsin E selective internally quenched fluorescent substrate AGFSL|PA.
T10 chain: AGFSLPA

B1: recombinant gastricsin (R&D Systems, 6186-AS) (protein)
chain: SVTYEPMAYMDAAYFGEISIGTPPQNFLVLFDTGSSNLWVPSVYCQSQACTSHSRFNPSESSTYSTNGQTFSLQYGSGSLTGFFGYDTLTVQSIQVPNQEFGLSENEPGTNFVYAQFDGIMGLAYPALSVDEATTAMQGMVQEGALTSPVFSVYLSNQQGSSGGAVVFGGVDSSLYTGQIYWAPVTQELYWQIGIEEFLIGGQASGWCSEGCQAIVDTGTSLLTVPQQYMSALLQATGAQEDEYGQFLVNCNSIQNLPSLTFIINGVEFPLPPSSYILSNNGYCTVGVEPTYLSSQNGQPLWILGDVFLRSYYSVYDLGNNRVGFATAA
With B1, the Relative Cleavage was 0.47 in data set [1], 0.33 in [2], 1 in [3] and 0.34 in data set [4]. Also, the Total Cleavage in data set [1] was 30; in [2] it was 21; in data set [3], 64; in data set [4], 22. In data set [5], the kcat/Km (M-1/s-1) is 480000 M-1/s-1. The “selectivity of fluorescent substrate cleavage (initial velocity) for gastricsin over cathepsin D” value in [5] is “greater than 120-fold selective for gastricsin over both cathepsins D and E”. Further, the “selectivity of fluorescent substrate cleavage (initial velocity) for gastricsin over cathepsin E” value in data set [5] was “greater than 120-fold selective for gastricsin over both cathepsins D and E”.

B2: recombinant cathepsin E (R&D Systems, 1294-AS) (protein)
chain: IQFTESCSMDQSAKEPLINYLDMEYFGTISIGSPPQNFTVIFDTGSSNLWVPSVYCTSPACKTHSRFQPSQSSTYSQPGQSFSIQYGTGSLSGIIGADQVSVEGLTVVGQQFGESVTEPGQTFVDAEFDGILGLGYPSLAVGGVTPVFDNMMAQNLVDLPMFSVYMSSNPEGGAGSELIFGGYDHSHFSGSLNWVPVTKQAYWQIALDNIQVGGTVMFCSEGCQAIVDTGTSLITGPSDKIKQLQNAIGAAPVDGEYAVECANLNVMPDVTFTINGVPYTLSPTAYTLLDFVDGMQFCSSGFQGLDIHPPAGPLWILGDVFIRQFYSVFDRGNNRVGLAPAVP
Take B2: the Relative Cleavage was 0.88 in data set [6], 1 in data set [7], 0.4 in data set [8] and 0.68 in data set [9]. Also, the Total Cleavage in data set [6] is 22; in data set [7], 25; in [8], 10; in data set [9], 17. Further, the “selectivity of fluorescent substrate cleavage (initial velocity) for cathepsin E over cathepsin D” value in data set [10] is “more than 100-fold selective for cathepsin E over both cathepsin D and gastricsin”. For the same protein, the “selectivity of fluorescent substrate cleavage (initial velocity) for cathepsin E over gastricsin” value in data set [10] was “more than 100-fold selective for cathepsin E over both cathepsin D and gastricsin”.

(Values after patent US20200081011.)
